The source of these data is patent publication US20240400715A1 (VIBRANT PHARMA, published 2024).

B1: 306 (TA7), configuration of FIG. 1W (bispecific antibody, IgG4)
heavy: EVQLVQSGAEVKKPGASVKVSCKASGFTFTSYYIHWVRQAPGQGLEWIGWIYPENDNTKYNEKFKDRVTITADTSTSTAYLELSSLRSEDTAVYYCARDGYSRYYFDYWGQGTLVTVSSASTKGPSVFPLAPCSRSTSESTAALGCLVKDYFPEPVTVSWNSGALTSGVHTFPAVLQSSGLYSLSSVVTVPSSSLGTKTYTCNVDHKPSNTKVDKRVESKYGPPCPPCPAPEAAGGPSVFLFPPKPKDTLMISRTPEVTCVVVDVSQEDPEVQFNWYVDGVEVHNAKTKPREEQFNSTYRVVSVLTVLHQDWLNGKEYKCKVSNKGLPSSIEKTISKAKGQPREPQVYTLPPCQEEMTKNQVSLWCLVKGFYPSDIAVEWESNGQPENNYKTTPPVLDSDGSFFLYSRLTVDKSRWQEGNVFSCSVMHEALHNHYTQKSLSLSL
chain: EVQLVESGGGFVQAGESLTLSCTSSTLTFTPYRMAWYRQAPGKQRDLVADISSGDGRTTNYADFAKGRFTISRDNIKNTVFLRMTNLKPEDTAVYYCNTFVSFVGIARSWGQGTQVTVSSESKYGPPCPPCPAPEAAGGPSVFLFPPKPKDTLMISRTPEVTCVVVDVSQEDPEVQFNWYVDGVEVHNAKTKPREEQFNSTYRVVSVLTVLHQDWLNGKEYKCKVSNKGLPSSIEKTISKAKGQPREPQVCTLPPSQEEMTKNQVSLSCAVKGFYPSDIAVEWESNGQPENNYKTTPPVLDSDGSFFLVSRLTVDKSRWQEGNVFSCSVMHEALHNRFTQKSLSLSL
light: DIVMTQSPDSLAVSLGERATINCKSSQSLLNSRTRKNYLAWYQQKPGQSPKLLIYWTSTRKSGVPDRFSGSGSGTDFTLTISSLQAEDVAVYYCKQSFILRTFGQGTKVEIK
notes: chains put together from VH/VL, CH1, knob-Fc; IgG4, kappa; also called CEA-CD3 bispecific antibody 306; not shown: kappa light chain constant domain (CL)
B2: Knob+CEA-Fab-Hole (206) (bispecific antibody, human IgG4 S228P, kappa, F234A L235A)
chain: ESKYGPPCPPCPAPEAAGGPSVFLFPPKPKDTLMISRTPEVTCVVVDVSQEDPEVQFNWYVDGVEVHNAKTKPREEQFNSTYRVVSVLTVLHQDWLNGKEYKCKVSNKGLPSSIEKTISKAKGQPREPQVYTLPPCQEEMTKNQVSLWCLVKGFYPSDIAVEWESNGQPENNYKTTPPVLDSDGSFFLYSRLTVDKSRWQEGNVFSCSVMHEALHNHYTQKSLSLSL
heavy: EVQLVESGGGFVQAGESLTLSCTSSTLTFTPYRMAWYRQAPGKQRDLVADISSGDGRTTNYADFAKGRFTISRDNIKNTVFLRMTNLKPEDTAVYYCNTFVSFVGIARSWGQGTQVTVSSGGGGSGGGGSEVKLLESGGGLVQPKGSLKLSCAASGFTFNTYAMNWVRQAPGKGLEWVARIRSKYNNYATYYADSVKDRFTISRDDSQSILYLQMNNLKTEDTAMYYCVRHGNFGNSYVSWFAYWGQGTLVTVSSASTKGPSVFPLAPCSRSTSESTAALGCLVKDYFPEPVTVSWNSGALTSGVHTFPAVLQSSGLYSLSSVVTVPSSSLGTKTYTCNVDHKPSNTKVDKRVESKYGPPCPPCPAPEAAGGPSVFLFPPKPKDTLMISRTPEVTCVVVDVSQEDPEVQFNWYVDGVEVHNAKTKPREEQFNSTYRVVSVLTVLHQDWLNGKEYKCKVSNKGLPSSIEKTISKAKGQPREPQVCTLPPSQEEMTKNQVSLSCAVKGFYPSDIAVEWESNGQPENNYKTTPPVLDSDGSFFLVSRLTVDKSRWQEGNVFSCSVMHEALHNRFTQKSLSLSL
light: QAVVTQESALTTSPGETVTLTCRSSTGAVTTSNYANWVQEKPDHLFTGLIGGTNKRAPGVPARFSGSLIGDKAALTITGAQTEDEAIYFCALWYSNLWVFGGGTKVEIKRTVAAPSVFIFPPSDEQLKSGTASVVCLLNNFYPREAKVQWKVDNALQSGNSQESVTEQDSKDSTYSLSSTLTLSKADYEKHKVYACEVTHQGLSSPVTKSFNRGEC
notes: VHH linked to the VH of the Fab; human IgG4 knob-into-hole Fc
B3: 301 (TA2), configuration of FIG. 1W (bispecific antibody, IgG4)
heavy: QVQLVQSGGGVVQPGRSLRLSCKASGYTFTRYTMHWVRQAPGKGLEWIGYINPSRGYTNYNQKVKDRFTISRDNSKNTAFLQMDSLRPEDTGVYFCARYYDDHYCLDYWGQGTPVTVSSASTKGPSVFPLAPCSRSTSESTAALGCLVKDYFPEPVTVSWNSGALTSGVHTFPAVLQSSGLYSLSSVVTVPSSSLGTKTYTCNVDHKPSNTKVDKRVESKYGPPCPPCPAPEAAGGPSVFLFPPKPKDTLMISRTPEVTCVVVDVSQEDPEVQFNWYVDGVEVHNAKTKPREEQFNSTYRVVSVLTVLHQDWLNGKEYKCKVSNKGLPSSIEKTISKAKGQPREPQVYTLPPCQEEMTKNQVSLWCLVKGFYPSDIAVEWESNGQPENNYKTTPPVLDSDGSFFLYSRLTVDKSRWQEGNVFSCSVMHEALHNHYTQKSLSLSL
chain: B1 chain
light: DIQMTQSPSSLSASVGDRVTITCSASSSVSYMNWYQQTPGKAPKRWIYDTSKLASGVPSRFSGSGSGTDYTFTISSLQPEDIATYYCQQWSSNPFTFGQGTKLQIT
notes: IgG4, kappa; not shown: kappa light chain constant domain (CL)
B4: 304 (TA5), configuration of FIG. 1W (bispecific antibody, IgG4)
heavy: DVQLVQSGAEVKKPGASVKVSCKASGYTFTRYTMHWVRQAPGQGLEWIGYINPSRGYTNYADSVKGRFTITTDKSTSTAYMELSSLRSEDTATYYCARYYDDHYCLDYWGQGTTVTVSSASTKGPSVFPLAPCSRSTSESTAALGCLVKDYFPEPVTVSWNSGALTSGVHTFPAVLQSSGLYSLSSVVTVPSSSLGTKTYTCNVDHKPSNTKVDKRVESKYGPPCPPCPAPEAAGGPSVFLFPPKPKDTLMISRTPEVTCVVVDVSQEDPEVQFNWYVDGVEVHNAKTKPREEQFNSTYRVVSVLTVLHQDWLNGKEYKCKVSNKGLPSSIEKTISKAKGQPREPQVYTLPPCQEEMTKNQVSLWCLVKGFYPSDIAVEWESNGQPENNYKTTPPVLDSDGSFFLYSRLTVDKSRWQEGNVFSCSVMHEALHNHYTQKSLSLSL
chain: B1 chain
light: DIVLTQSPATLSLSPGERATLSCRASQSVSYMNWYQQKPGKAPKRWIYDTSKVASGVPARFSGSGSGTDYSLTINSLEAEDAATYYCQQWSSNPLTFGGGTKVEIK
notes: chains put together from VH/VL, CH1, knob-Fc; IgG4, kappa; not shown: kappa light chain constant domain (CL)
B5: 310 (TA5), configuration of FIG. 1X (bispecific antibody, IgG4)
heavy: DVQLVQSGAEVKKPGASVKVSCKASGYTFTRYTMHWVRQAPGQGLEWIGYINPSRGYTNYADSVKGRFTITTDKSTSTAYMELSSLRSEDTATYYCARYYDDHYCLDYWGQGTTVTVSSASTKGPSVFPLAPCSRSTSESTAALGCLVKDYFPEPVTVSWNSGALTSGVHTFPAVLQSSGLYSLSSVVTVPSSSLGTKTYTCNVDHKPSNTKVDKRVESKYGPPCPPCPAPEAAGGPSVFLFPPKPKDTLMISRTPEVTCVVVDVSQEDPEVQFNWYVDGVEVHNAKTKPREEQFNSTYRVVSVLTVLHQDWLNGKEYKCKVSNKGLPSSIEKTISKAKGQPREPQVYTLPPCQEEMTKNQVSLWCLVKGFYPSDIAVEWESNGQPENNYKTTPPVLDSDGSFFLYSRLTVDKSRWQEGNVFSCSVMHEALHNHYTQKSLSLSLGGGGSGGGGSEVQLVESGGGFVQAGESLTLSCTSSTLTFTPYRMAWYRQAPGKQRDLVADISSGDGRTTNYADFAKGRFTISRDNIKNTVFLRMTNLKPEDTAVYYCNTFVSFVGIARSWGQGTQVTVSS
chain: B2 chain with Y131C, C136S, W148S, L150A, Y189V, H217R, Y218F
light: B4 light
notes: chains put together from parts; IgG4, kappa; also called CEA-CD3 bispecific antibody 310; not shown: kappa light chain constant domain (CL)
B6: 307 (TA2), configuration of FIG. 1X (bispecific antibody, IgG4)
heavy: QVQLVQSGGGVVQPGRSLRLSCKASGYTFTRYTMHWVRQAPGKGLEWIGYINPSRGYTNYNQKVKDRFTISRDNSKNTAFLQMDSLRPEDTGVYFCARYYDDHYCLDYWGQGTPVTVSSASTKGPSVFPLAPCSRSTSESTAALGCLVKDYFPEPVTVSWNSGALTSGVHTFPAVLQSSGLYSLSSVVTVPSSSLGTKTYTCNVDHKPSNTKVDKRVESKYGPPCPPCPAPEAAGGPSVFLFPPKPKDTLMISRTPEVTCVVVDVSQEDPEVQFNWYVDGVEVHNAKTKPREEQFNSTYRVVSVLTVLHQDWLNGKEYKCKVSNKGLPSSIEKTISKAKGQPREPQVYTLPPCQEEMTKNQVSLWCLVKGFYPSDIAVEWESNGQPENNYKTTPPVLDSDGSFFLYSRLTVDKSRWQEGNVFSCSVMHEALHNHYTQKSLSLSLGGGGSGGGGSEVQLVESGGGFVQAGESLTLSCTSSTLTFTPYRMAWYRQAPGKQRDLVADISSGDGRTTNYADFAKGRFTISRDNIKNTVFLRMTNLKPEDTAVYYCNTFVSFVGIARSWGQGTQVTVSS
chain: B2 chain with Y131C, C136S, W148S, L150A, Y189V, H217R, Y218F
light: B3 light
notes: chains put together from parts; IgG4, kappa; also called CEA-CD3 bispecific antibody 307; not shown: kappa light chain constant domain (CL)

Residue numbers refer to the chain shown, from its start. “And” between values parts separate entries of the source, which are not always exact repeats. Equal values may be shown once.

The first assay addresses T1, human CD3ε/δ (ACRO systems, CDD-H52W1) (human, UniProt P07766 23-126; P04234 22-105).
T1 construct: Bought protein; also called human CD3ϵ/CD3δ; human CD3 epsilon/delta antigen
Briefly: BLI, antibody captured, antigen in solution.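 Note: bispecific antibodies captured on AHIC biosensors to a 1.5 nm loading signal, in PBST with 0.02% detergent.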 In general terms: Biolayer interferometry detects binding as a change in optical thickness at a sensor tip.
Description: The bispecific antibodies were diluted to 5 ag/ml, and 1.5 nm protein was coupled to the surface of the AHIC sensor chip through 0.02% PBST.
For the molecule B1, the Kd (as a rule, the equilibrium constant for the complex coming apart) was 1.4 nM; the koff (commonly a measure of how fast the partners let go of each other) came out at 0.000419 s⁻¹; the kon (as a rule, the rate constant with which the complex forms) was found to be 278000 M⁻¹ s⁻¹.
The matching figures for B2: 3.08 nM, 0.000552 s⁻¹ and 180000 M⁻¹ s⁻¹.

The next assay concerns the target T2, human CD3 on Jurkat cells (human, UniProt P07766 23-207; P04234 22-171; P09693 23-182).
T2 construct: whole, on cells; CD3 complex as on Jurkat (Clone E6-1) cells; also called CD3 expressing cells (Jurkat)
In words: FACS, Jurkat cells.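 Note: flow cytometric binding of bispecific antibodies to Jurkat T cells, threefold serial dilutions incubated half an hour in the cold, EC50 taken from the fitted binding curve.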 In general terms: Flow cytometry measures light scatter and fluorescence of single cells or particles in a stream.
Description: The binding of the bispecific antibodies was tested on the CA expressing human lung adenocarcinoma cell line (H1573) and the CD3 expressing immortalized T lymphocyte line (Jurkat). The steps are as follows: the cells were harvested, counted, and resuspended in FACS buffer (PBS containing 0.1% BSA) at 2×10⁶ cells/ml. 100 μl of cell suspension was incubated in a V-bottom 96-well plate at 4° C. with 3-fold serial dilutions of bispecific antibodies (20 μg/ml-0.009 μg/ml) for 30 minutes; washed twice with pre-cooled FACS buffer. […] GraphPadPrism was used to obtain the binding curve.
For the molecule B1, the EC50 (in general, the concentration giving half of the maximal effect) is 0.0129 µg/mL and 0.1 nM.
With B3, the EC50 was 0.282 µg/mL and 2.17 nM.
Still for that read-out and setting: the result for B4 reads 0.101 µg/mL and 0.77 nM; that for B2, 8.29 nM and 1.08 µg/mL.
Same read-out and setting: with B5 the figure was 0.181 µg/mL and 1.39 nM; with B6, 2.86 µg/mL and 22 nM.
